This note sets out measurements from publication PMC5458255.

This experiment concerns the target CCR7 receptor (human (endogenous in NKL3 and MDA-MB-231)) (UniProt P32248).
Chain of UniProt P32248 (P32248 25-378): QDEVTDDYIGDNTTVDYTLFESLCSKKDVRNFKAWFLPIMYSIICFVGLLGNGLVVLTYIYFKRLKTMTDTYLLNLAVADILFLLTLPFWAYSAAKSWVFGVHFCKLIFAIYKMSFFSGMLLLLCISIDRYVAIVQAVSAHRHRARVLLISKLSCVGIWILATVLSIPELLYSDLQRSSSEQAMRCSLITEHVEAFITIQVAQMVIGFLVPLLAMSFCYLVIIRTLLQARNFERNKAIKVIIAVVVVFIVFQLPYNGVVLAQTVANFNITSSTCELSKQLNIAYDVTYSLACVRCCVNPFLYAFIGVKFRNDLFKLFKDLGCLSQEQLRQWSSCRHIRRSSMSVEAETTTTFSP

With “recombinant human CCL21 (from UniProt O00585 24-134) (ligand)”, the adhesion under flow of NKL3 cells to HPLNEC.B3 endothelial cells treated with CCL21, hypoxia; total inhibition by anti-CCR7 neutralizing antibodies came to 2.5 fold.
